Assay results as given in patent US20160152995A1, “METHODS AND COMPOSITIONS TO IMPROVE THE SPREAD OF CHEMICAL SIGNALS IN PLANTS” (PIONEER HI-BRED INTERNATIONAL, INC., priority 2013, published 2016).

B1: clone L1-44: SuR polypeptide, SEQ ID NO:13 (protein)
chain: MGSRLDKSKVINSALELLNEVGIEGLTTRKLAQKLGVEQPTLYWHVKNKRALLDALAIEMLDRHATHFCPLEGESWQDFLRNNAKSYRCALLSHRDGAKVYLGTAVTEKQYETAENQLAFLCQQGFSLENALYAVKAVAGFTLGCVLWDQESQVAKEERETPTTASMPPLLRQAVELADHQGAEPAFLFGLELIICGLEKQLKCESGS
modifications: Sulfonylurea responsive repressor
B2: clone L1-29: SuR polypeptide, SEQ ID NO:10 (protein)
chain: MGSRLDKSKVINSALELLNEVGIEGLTTRKLAQKLGVEQPTLYWHVKNKRALLDALAIEMMDRHQTHFCPLEGESWQDFLRNTAKSMRCALLSHRDGAKVWLGTRWTEKQYETPENMLAFLCQQGFSLENALYAWSAVCNFTLGCVLSDQERQVAKEERETPTTDSMPPLLRQAWELSDHQGAEPAFLFGLELIICGLEKQLKCESGS
modifications: Sulfonylurea responsive repressor

System: β-gal background activity
Assay: First and second round library screen (L1, L2) for induction by sulfonylurea ligands, β-gal colony assay
Type: cell-based, E. coli
Conditions: for Inducer preference: β-gal colony assay, L2 library screened with each ligand at 2 ppm, numbers are the patent's inducer ligand numbers, atc for wt
Description: The original library was designed to thifensulfuron, but once induction activity was established with other SU compounds having potentially better soil and in planta stability properties than the original ligand, the evolution process was re-directed towards these alternative ligands. Of particular interest were herbicides metsulfuron, sulfometuron, ethametsulfuron and chlorsulfuron. For this objective, parental clones L1-9, -22, -29 and -44 were chosen for further shuffling. Clone L1-9 has strong activity on both ethametsulfuron and chlorsulfuron; clone L1-22 has strong sulfometuron activity; clone L1-29 has moderate metsulfuron activity; and clone L1-44 has moderate activity on metsulfuron, ethametsulfuron and chlorsulfuron. (Data not shown.). No clones found in the initial screen were exceptionally reactive to metsulfuron. These four clones were also chosen due to their relatively strong repressor activity, showing low β-gal background activity without inducer. Strong repressor activity is important for establishing a system which is both highly sensitive to the presence of inducer, and tightly off in the absence of inducer.
Based on the sequence information from parental clones L1-9, -22, -29 and -44, two second round libraries were designed, constructed and screened. The first library, L2, consisted of a ‘family’ shuffle whereby the amino acid diversity between the selected parental clones was varied using synthetic assembly of oligonucleotides to find clones improved in responsiveness to any of the four new target ligands.
The L2 oligonucleotides were assembled, cloned and screened as per the protocol described for library L1 except that each ligand was tested at 2 ppm to increase the stringency of the assay, which is a 10-fold reduction from 1st round library screening concentration.

[1] = library L1 initial screen, data not shown

| Molecule | induction activity on chlorsulfuron [1] | induction activity on ethametsulfuron [1] | induction activity on metsulfuron [1] | Inducer preference |
| --- | --- | --- | --- | --- |
| B1 | moderate | moderate | moderate | 9 (weak) |
| B2 |  |  | moderate | 9 (weak) |
